Test results as given in patent US20080193947A1, “Complementary Peptides For Beta-Amyloid 29-42 Peptide” (priority 2004, published 2008).
Where no end group is shown, it is not given here.

Experiments:
Aβ 29-42 [1] = molecular target: T1, Aβ 29-42 (Homo sapiens, UniProt P05067); assay type: biochemical; conditions: for % of fusion after 15 minutes: 1/1 peptide ratio, room temperature, average of plateau (10-15 minutes) of three experiments, Aβ alone = 100%
SH-SY5Y cells [2] = assay: Cell toxicity assay (MTS) in presence of both the Aβ 1-42 and ApoE 270-287 peptides; assay type: cell-based, human; conditions: 2 μM ApoE 270-287 + 100 μM Aβ 1-42 (ratio 1/50), 24 h, FIG. 9
SH-SY5Y cells [3] = assay: Cell toxicity assay (MTS) of single peptides on human neuroblastoma cell line; assay type: cell-based; conditions: 24 h, FIG. 7 / FIG. 8
Aβ 29-42 [4] = molecular target: T1, Aβ 29-42; assay type: biochemical; design: made in house; host or cells: chemical peptide synthesis (no expression host); conditions: for HPTS fluorescence signal when added to Aβ 29-42 (inhibition of membrane destabilization): independently of the mutant/Aβ 29-42 molar ratio, Aβ peptide/lipid molar ratio 0.4, FIGS. 4a and b
Source text: (§1) In this leakage assay, performed according to the procedure described in Ellens et al. (Ellens, H., Bentz, J., and Szoka, F. C. (1985) Biochemistry 24, 3099-3106), a substance encapsulated in the liposomes is followed by fluorescence measurement. HPTS ([…]) and his quencher DPX (p-xylylenebis[pyridinium]bromide) were both encapsulated in the aqueous phase of the same liposomes. Liposomes were eluted on a Sephadex G75 column to remove the excess of HPTS and DPX.
(§2) Fluorescence was measured at room temperature using excitation and emission wavelengths of 450 nm and 512 nm, respectively. Leakage induced by the Aβ peptide was followed by measuring the dequenching of HPTS released into the medium. The percentage of release induced by the peptide was defined as Ft/Ftot×100, where Ft is the fluorescence signal measured at time t and Ftot is the signal obtained after lysing the vesicles with 0.5% Triton X100.

Aβ 29-42 [5] = assay type: biochemical; conditions: without Aβ 29-42; data not shown
Source text: as §1, §2

[6] = molecular target: T2, β-Amyloid peptidic fragment 29-42 (Aβ 29-42) (C-terminal and N-terminal blocked (N-amidated and C-acetylated) (so in the source)); assay: cell-based or functional assay
[7] = molecular target: T2, β-Amyloid peptidic fragment 29-42 (Aβ …); assay: cell-based or functional assay; remark: listed apart in the source

Ac-EDMQRQWAGLVEKVQAAV-NH2 [ApoE WT]
% of fusion after 15 minutes (Aβ 29-42 [1]): 89%
fluorescence signal (lipid fusion), Aβ 29-42 alone taken as 100% fusion reference (Aβ 29-42 [1]; FIG. 3, added to Aβ 29-42 at molar ratio of 1, Aβ peptide/lipid ratio 0,4 (mol/mol)): about 91%
cell viability in presence of Aβ 1-42 and the complementary peptide (SH-SY5Y cells [2]): 80%
cell toxicity (viability against increasing peptide concentrations) (SH-SY5Y cells [3]): induces cell toxicity only at 100 μM

Aβ 1-40: β-Amyloid 1-40 peptide
cell toxicity (viability against increasing peptide concentrations) (SH-SY5Y cells [3]): does not induce any

GAIIGLMVGGVVIA (listed as Homo sapiens) [Aβ 29-42, C-terminal part of the β-Amyloid protein, tilted fusion peptide]
% of fusion after 15 minutes (Aβ 29-42 [1]): 100%
% of leakage after 15 minutes (Aβ 29-42 [4]; 1/1 peptide ratio, room temperature, average of plateau (10-15 minutes) of three experiments): 28%

EDMQRQLAGVVEKVQAAV (also: N- and C-terminal blocking) [ApoE mutant 11, peptide derived from ApoE WT]
HPTS fluorescence signal when added to Aβ 29-42 (inhibition of membrane destabilization) (Aβ 29-42 [4]): much weaker
destabilization effects of the peptide alone on the membranes (Aβ 29-42 [5]): no destabilization effects on the membranes

EDMQRQMAGLMEKMQAAV (also: N- and C-terminal blocking) [ApoE mutant 413, peptide derived from ApoE WT]
HPTS fluorescence signal when added to Aβ 29-42 (inhibition of membrane destabilization) (Aβ 29-42 [4]): much weaker
destabilization effects of the peptide alone on the membranes (Aβ 29-42 [5]): no destabilization effects on the membranes

Ac-EDMQRQLAGVVEKVQAAV-NH2 [ApoE mutant 11]
% of fusion after 15 minutes (R18 lipid fusion of SUV induced by Aβ 29-42, 1/1 peptide ratio) [6]: 17%
% of leakage after 15 minutes (HPTS/DPX liposome leakage induced by Aβ 29-42, 1/1 peptide ratio) [6]: 0%
R18 fluorescence signal of lipid fusion against Aβ 29-42 alone as 100% (FIG. 3, molar ratio of 1) [7]: 23%

EDMQRQWAGLVEKVQAAV (not fully specified (N-terminus, C-terminus)) [wild type Apolipoprotein E3 peptide 270-287 (ApoE WT)]
% of fusion after 15 minutes (R18 lipid fusion of SUV induced by Aβ 29-42, 1/1 peptide ratio) [6]: 89%
R18 fluorescence signal of lipid fusion against Aβ 29-42 alone as 100% (FIG. 3, molar ratio of 1) [7]: ~91%

Ac-EDMQRQMAGLMEKMQAAV-NH2 [ApoE mutant 413]
% of fusion after 15 minutes (R18 lipid fusion of SUV induced by Aβ 29-42, 1/1 peptide ratio) [6]: 21%
% of leakage after 15 minutes (HPTS/DPX liposome leakage induced by Aβ 29-42, 1/1 peptide ratio) [6]: 4%
R18 fluorescence signal of lipid fusion against Aβ 29-42 alone as 100% (FIG. 3, molar ratio of 1) [7]: 25%
